Key:
[1] = molecular target: T1, LaNTD (La 4-194) (Homo sapiens, UniProt P05455 4-194); assay: X-ray crystallography; 2.1 A, C2; EMSA: ~1 nM radiolabeled RNA, protocol of Jacks et al. 2003 (buffer, salt, pH, temperature not given); NMR: 15N-LaNTD, RNA:protein 0.2-1.5:1, NMR buffer not given; settings: protein: recombinant; tags: N-terminal 6xHis removed by thrombin; leaves Gly-Ser; single strand
T1 sequence: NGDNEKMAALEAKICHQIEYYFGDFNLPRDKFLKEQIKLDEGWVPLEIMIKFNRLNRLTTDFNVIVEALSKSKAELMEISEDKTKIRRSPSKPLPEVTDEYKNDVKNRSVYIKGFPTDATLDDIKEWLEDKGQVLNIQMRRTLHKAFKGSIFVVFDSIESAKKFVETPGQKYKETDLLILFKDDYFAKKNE

[2] = molecular target: T2, LaNTD (La 1-194) (Homo sapiens, UniProt P05455 1-194); assay: NMR HSQC titration; split resonances, two states; EMSA: ~1 nM radiolabeled RNA, protocol of Jacks et al. 2003 (buffer, salt, pH, temperature not given); NMR: 15N-LaNTD, RNA:protein 0.2-1.5:1, NMR buffer not given; settings: protein: recombinant; single strand
T2 sequence: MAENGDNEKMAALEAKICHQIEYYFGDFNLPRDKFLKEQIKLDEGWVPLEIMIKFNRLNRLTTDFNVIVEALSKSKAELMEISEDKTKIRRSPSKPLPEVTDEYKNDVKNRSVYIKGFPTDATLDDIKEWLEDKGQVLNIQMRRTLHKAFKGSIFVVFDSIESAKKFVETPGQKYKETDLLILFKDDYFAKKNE

[3] = molecular target: T1, LaNTD (La 4-194); assay: X-ray crystallography; 2.8 A, C222; EMSA: ~1 nM radiolabeled RNA, protocol of Jacks et al. 2003 (buffer, salt, pH, temperature not given); NMR: 15N-LaNTD, RNA:protein 0.2-1.5:1, NMR buffer not given; settings: protein: recombinant; tags: N-terminal 6xHis removed by thrombin; leaves Gly-Ser; single strand
[4] = molecular target: T2, LaNTD (La 1-194); assay: NMR HSQC titration; EMSA: ~1 nM radiolabeled RNA, protocol of Jacks et al. 2003 (buffer, salt, pH, temperature not given); NMR: 15N-LaNTD, RNA:protein 0.2-1.5:1, NMR buffer not given; settings: protein: recombinant; single strand
[5] = molecular target: T2, LaNTD (La 1-194); assay: EMSA; EMSA: ~1 nM radiolabeled RNA, protocol of Jacks et al. 2003 (buffer, salt, pH, temperature not given); NMR: 15N-LaNTD, RNA:protein 0.2-1.5:1, NMR buffer not given; settings: protein: recombinant, single strand
[6] = molecular target: T2, LaNTD (La 1-194); assay: NMR HSQC titration and relaxation; EMSA: ~1 nM radiolabeled RNA, protocol of Jacks et al. 2003 (buffer, salt, pH, temperature not given); NMR: 15N-LaNTD, RNA:protein 0.2-1.5:1, NMR buffer not given; settings: protein: recombinant; single strand
[7] = molecular target: T1, LaNTD (La 4-194); assay: X-ray crystallography; 1.8 A, P21212; only last two U modelled; EMSA: ~1 nM radiolabeled RNA, protocol of Jacks et al. 2003 (buffer, salt, pH, temperature not given); NMR: 15N-LaNTD, RNA:protein 0.2-1.5:1, NMR buffer not given; settings: protein: recombinant; tags: N-terminal 6xHis removed by thrombin; leaves Gly-Ser; single strand
[8] = molecular target: T2, LaNTD (La 1-194); assay: EMSA; reference oligomer for relative Kd; EMSA: ~1 nM radiolabeled RNA, protocol of Jacks et al. 2003 (buffer, salt, pH, temperature not given); NMR: 15N-LaNTD, RNA:protein 0.2-1.5:1, NMR buffer not given; settings: protein: recombinant; label: radiolabeled; single strand

AUAAUUU (ssRNA): binds [1].

AUUUU (ssRNA): binds [2]; binds [3].

UCUU (ssRNA): binds [4].

CACACAUAUU (ssRNA) was tested, and the binding signal ([5]; label: radiolabeled) was 1 ± 0.2 Kd relative to CACACAAUUU (30 nM).

In the case of CACACACCUU (ssRNA), the binding signal ([5]; label: radiolabeled) is reported as 2.4 ± 0.5 Kd relative to CACACAAUUU (30 nM).

In the case of UUUUUUUUUU (ssRNA) [UUUUUUUUUU (U10)], the binding signal ([5]; (radiolabeled) in gel shift, unlabeled in NMR) is reported as 1 ± 0.4 Kd relative to CACACAAUUU (30 nM).

CACACAACUU (ssRNA) was tested, and the binding signal ([5]; label: radiolabeled) was 2 ± 0.8 Kd relative to CACACAAUUU (30 nM).

For ACACACUUUU (ssRNA), the binding signal ([5]; label: radiolabeled) was 0.7 ± 0.2 Kd relative to CACACAAUUU (30 nM).

UUU (ssRNA): binds [6].

In the case of CACACAUUUU (ssRNA), the binding signal ([5]; label: radiolabeled) is reported as 0.8 ± 0.3 Kd relative to CACACAAUUU (30 nM).

UUUU (ssRNA): binds [6].

With CACACACUUU (ssRNA) the binding signal ([5]; label: radiolabeled) was 1.2 ± 0.4 Kd relative to CACACAAUUU (30 nM).

UUUUUUUU (ssRNA) [UUUUUUUU (U8)]: binds [7].

CACACAAUUU (ssRNA) showed a Kd [8] of 30 nM.

With CACACAUCUU (ssRNA) the binding signal ([5]; label: radiolabeled) was 1.4 ± 0.5 Kd relative to CACACAAUUU (30 nM).

In the case of CACACAAAUU (ssRNA), the binding signal ([5]; label: radiolabeled) is reported as 2.8 ± 1.1 Kd relative to CACACAAUUU (30 nM).

AUAUUUU (ssRNA): binds [1].
